# Target: T1, purified SecA (E. coli, UniProt P10408 1-901)
# T1 construct: SecA, ATP-fueled motor protein of the Sec translocon of E. coli, purified; source: purified essentially as described [82]
# Experiment: far-Western, overlay or dot blot; purified FtsY, Ffh, SecA or Ffh partially digested by Glu-C (V8) resolved on 10% SDS-PAGE, transferred to nitrocellulose, re-natured, incubated with purified WTσ^32, probed with polyclonal anti-σ^32
# Conditions: both partners purified
# T1 sequence (P10408 whole entry): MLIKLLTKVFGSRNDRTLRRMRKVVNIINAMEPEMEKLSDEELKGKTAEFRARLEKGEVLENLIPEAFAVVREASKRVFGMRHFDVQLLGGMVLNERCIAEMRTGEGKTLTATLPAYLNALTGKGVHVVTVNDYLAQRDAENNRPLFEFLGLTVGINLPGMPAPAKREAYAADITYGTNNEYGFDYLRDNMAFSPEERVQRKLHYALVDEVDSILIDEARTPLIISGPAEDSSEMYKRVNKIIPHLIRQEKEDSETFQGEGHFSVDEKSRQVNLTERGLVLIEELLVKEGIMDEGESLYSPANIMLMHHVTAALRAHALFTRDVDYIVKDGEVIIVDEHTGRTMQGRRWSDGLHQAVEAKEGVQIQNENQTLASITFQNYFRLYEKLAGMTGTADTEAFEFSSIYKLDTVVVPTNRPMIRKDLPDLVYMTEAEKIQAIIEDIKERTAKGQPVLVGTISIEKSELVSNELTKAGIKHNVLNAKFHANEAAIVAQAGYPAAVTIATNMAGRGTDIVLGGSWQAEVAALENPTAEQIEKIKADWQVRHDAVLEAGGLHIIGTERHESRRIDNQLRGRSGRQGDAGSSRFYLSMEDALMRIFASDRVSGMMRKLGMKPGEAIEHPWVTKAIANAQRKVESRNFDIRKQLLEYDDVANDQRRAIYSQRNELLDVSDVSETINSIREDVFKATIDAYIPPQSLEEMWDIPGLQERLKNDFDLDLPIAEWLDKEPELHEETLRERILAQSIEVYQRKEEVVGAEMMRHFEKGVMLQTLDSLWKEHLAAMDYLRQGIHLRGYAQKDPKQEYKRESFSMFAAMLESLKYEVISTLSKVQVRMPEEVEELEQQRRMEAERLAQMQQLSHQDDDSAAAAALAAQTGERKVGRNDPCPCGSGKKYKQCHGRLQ
binder,measurement,value
"purified WTσ^32 (natural protein, E. coli, UniProt P0AGB3 1-284, looked up, RNA polymerase sigma factor σ^32 (RpoH) of E. coli, wild type, purified; called full-length in the discussion; The methods list 6×H-tagged, Strep-6×H-tagged and untagged σ^32; also called full-length σ^32; source: purified essentially as described [80]; chaperones removed with a wash of ATP, MgCl2 and two peptides) MTDKMQSLALAPVGNLDSYIRAANAWPMLSADEERALAEKLHYHGDLEAAKTLILSHLRFVVHIARNYAGYGLPQADLIQEGNIGLMKAVRRFNPEVGVRLVSFAVHWIKAEIHEYVLRNWRIVKVATTKAQRKLFFNLRKTKQRLGWFNQDEVEMVARELGVTSKDVREMESRMAAQDMTFDLSSDDDSDSQPMAPVLYLQDKSSNFADGIEDDNWEEQAANRLTDAMQGLDERSQDIIRARWLDEDNKSTLQELADRYGVSAERVRQLEKNAMKKLRAAIEA",binding result,binds
